{"source": "paper PMC3072023", "about": "(Biochemistry, 2010)", "target": "the molecule itself", "assay": "crystal structure"}
{"protein": "GluA2 S1S2 flop (ligand-binding domain of rat GluA2o) (domain or fragment) GANKTVVVTTILESPYVMMKKNHEMLEGNERYEGYCVDLAAEIAKHCGFKYKLTIVGDGKYGARDADTKIWNGMVGELVYGKADIAIAPLTITLVREEVIDFSKPFMSLGISIMIKKGTPIESAEDLSKQTEIAYGTLDSGSTKEFFRRSKIAVFDKMWTYMRSAEPSVFVRTTAEGVARVRKSKGKYAYLLESTMNEYIEQRKPCDTMKVGGNLDSKGYGIATPKGSSLGNAVNLAVLKLNEQGLLDKLKNKWWYDKGECGS", "values": [{"measurement": "binding result", "result": "binds"}]}
